From PMC5101896, “Enhanced cellular uptake of lactosomes using cell-penetrating peptides” (Science and Technology of Advanced Materials, 2016)
No end group written: not given here.

Key:
[1] = Zeta potential by laser Doppler electrophoresis; assay type: physicochemical; conditions: Zetasizer Nano ZSP, n = 3, mean ± standard deviation
Experimental: (§1) A chloroform solution containing the (PSar25)3-block-PLLA35 (100 nmol, […]) with 4 mol% of TPP (Wako Pure Chemical, Osaka, Japan), 2 mol% of ICG-PLLA34, and 10 mol% maleimide-PSar56-PLLA30 was evaporated under reduced pressure to remove the solvent, forming a thin film on the surface of the glass test tube. Saline (Otsuka normal saline, Otsuka Pharmaceutical Factory, Tokushima, Japan) (50 μl) was added to the test tube, which was then placed at room temperature for 5 min. Then, 50 μl of the saline solution containing 50 nmol CPP and 10 nmol Tris(2-carboxyethyl)phosphine hydrochloride (Nacalai Tesque, Kyoto, Japan) was added to the solution (50 μl) in the test tube and stirred for 12 h at room temperature. In this procedure, lactosome formation and TPP encapsulation by the lactosome were expected. At the same time, maleimide-PSar56-PLLA30 in the lactosome is expected to react with CPP, which contains a cysteine residue at its C-terminus (Table 1). This lactosome mixture was diluted with 400 μl of saline, and passed through a 0.1 μm syringe filter (Membrane Solutions, Dallas, USA) to remove large aggregates. Low molecular weight molecules were excluded from the mixture using Amicon Ultra-0.5 (MWCO 50 kDa, Merck Millipore, Darmstadt, Germany). To analyze concentrations of CPP, TPP and ICG-PLLA34, absorption spectra of the lactosome complexes were measured using a BioSpec spectrometer (Shimadzu, Kyoto, Japan). The particle size, size distribution, polydispersity index (PDI), and zeta potential were measured by Zetasizer Nano ZSP (Malvern Instruments, Malvern, UK).
(§2) The particle sizes of lactosome complexes were measured by dynamic light scattering (DLS). The average particle sizes of the CPP-modified lactosomes were 36–49 nm, which were slightly larger than the unmodified lactosomes (34.2 nm) (Table 2, Figure 1(b)). The zeta potential value of CPP-modified lactosomes (e.g. Pep1-modified lactosome: 1.7 mV, EB1-modified lactosome: 1.6 mV) was higher than that of the unmodified lactosomes (–4.6 mV) (Table 2). The increase in the zeta potential seems to be due to positively charged CPPs.

[2] = Particle size and polydispersity by dynamic light scattering (DLS); assay type: physicochemical; conditions: Zetasizer Nano ZSP, n = 3, mean ± standard deviation; for Diameter: lactosomes in saline
Experimental: as §1, §2

CHO cells = experiment: Cellular uptake of ICG-labeled CPP-modified lactosomes; assay type: cell-based, Chinese hamster; conditions: for Cellular uptake level (in words): 10 nmol lactosome complexes, ICG fluorescence intensity divided by cell viability; for Cellular localization (co-localization with LysoTracker Green): 2 μM LysoTracker Green, further 3 h incubation; for ICG fluorescence in cells by fluorescence microscopy, compared to lactosomes without CPP: after washing
Experimental: CHO cells were cultured at 37°C under 5% CO2 in Ham’s F12 medium (Wako Pure Chemical) supplemented with 10% fetal bovine serum (FBS, Nichirei Biosciences, Tokyo Japan), 100 units ml^–1 penicillin (Gibco; Thermo Fisher Scientific, Waltham, Massachusetts, USA), and 100 μg ml^–1 streptomycin (Gibco; Thermo Fisher Scientific). The cells were seeded at a density of 2 × 10^4 cells/well in the 96-well plate, and incubated at 37°C under 5% CO2 overnight. The cells were then incubated at 37°C for 2 h with ICG-labeled lactosomes modified with CPPs (Tat, PTD4, DPV3, MPG^ΔNLS, R9MPG, Pep1, or EB1) dissolved in 200 μl T buffer. The lactosome solution was exchanged for Ham’s F12 medium before the fluorescence imaging. The cellular fluorescence images were obtained by fluorescence microscopy using an Olympus IX71 microscope (Olympus, Tokyo, Japan) with a 40 × objective lens and a U-DM-CY7–3 mirror unit.
LysoTracker Green (Thermo Fisher Scientific) was used for investigating cellular localization of CPP-modified lactosomes. After incubation of the cells with CPP-modified ICG-labeled lactosomes, the lactosome solution was exchanged with Ham’s F12 medium containing 2 μM LysoTracker Green. The cells were further incubated for 3 h. Then, the cell medium was replaced with Ham’s F12 medium, and fluorescence images were obtained.
To evaluate the cellular uptake of the lactosome complexes, the ICG fluorescence images were obtained using an IVIS spectrum system (Xenogen, Hopkinton, Massachusetts USA) with a filter set specific for ICG (excitation at 745 nm and emission at 840 ± 10 nm). The ICG fluorescence intensity was estimated from the photon counts of the images. Then, the cell medium was replaced with solution containing 10 μl of Cell Counting Kit-8 solution (Dojindo, Kumamoto, Japan) and 90 μl of Ham’s F12 medium, and the cells were incubated for an additional 1.5 h. After incubation, the cell viability was measured by absorbance at 450 nm using the microplate reader SunriseR (Tecan Japan, Kanagawa, Japan). Lactosome uptake levels were calculated by dividing ICG fluorescence intensity by cell viability of each well.

NCI-N87 cells = experiment: Photoinduced cell killing (PDT treatment) with CPP/TPP-lactosomes, Cell Counting Kit-8; assay type: cell-based, human; conditions: 1.5 h at 37°C in T buffer, irradiation 340–390 nm, 200 mW cm^–2, 100 s, then 24 h culture, n = 3
Experimental: NCI-N87 cells were cultured at 37°C under 5% CO2 in RPMI1640 medium (Wako Pure Chemical) supplemented with 10% FBS, 100 units ml^–1 penicillin, and 100 μg ml^–1 streptomycin. NCI-N87 cells were seeded at a density of 4 × 10^4 cells/well in a 96-well plate, and incubated at 37°C for two days before treatment with the lactosome complex. CHO cells were cultured and seeded as described above. The effect of treatment with the TPP-loaded lactosomes and light on cell viability, which is related to PDT efficacy, was evaluated as follows: TPP-loaded lactosomes modified with CPPs (Pep1 or EB1) dissolved in 200 μl of T buffer (20 mM HEPES-KOH (pH 7.4), 115 mM NaCl, 5.4 mM KCl, 1.8 mM CaCl2, 0.8 mM MgCl2, and 13.8 mM glucose) were added to NCI-N87 cells (70% confluent) in the 96-well plate. The cells were incubated at 37°C for 1.5 h. After the lactosome solution was exchanged for T buffer, the cells were irradiated at 340–390 nm at 200 mW cm^–2 for 100 s. After irradiation, the cells were further incubated for 24 h at 37°C under 5% CO2 in the medium. Then, the cell medium was exchanged for the solution containing 10 μl of Cell Counting Kit-8 solution and 90 μl of RPMI1640 medium, and the cells were incubated at 37°C for 2 h. The cell viability was measured by the absorbance at 450 nm using a microplate reader SunriseR. […]

PANC-1 tumor = experiment: In vivo ICG fluorescence imaging of tumor-bearing mice; set-up: species or system mice (BALB/c nu/nu); conditions: tail vein injection, imaging 24 h after injection, IVIS; three mice
Experimental: (§3) Six-week-old male nude mice (BALB/c nu/nu) were purchased from Charles River. Five weeks before the imaging, PANC-1 cells (1 × 10^7) suspended in 100 μl of 50% Matrigel Matrix (Corning Life Sciences, Corning, New York USA) in phosphate buffered saline was subcutaneously inoculated into the front left leg of mice. Two weeks after the first transplantation, NCI-N87 cells (4 × 10^6) were suspended in the Matrigel solution and subcutaneously inoculated into the front right leg of mice. Three weeks after the second transplantation, CPP/TPP/ICG-lactosomes were injected into the tumor-bearing mouse via the tail vein. After 24 h, ICG fluorescence images were taken using the IVIS spectrum system (excitation at 745 nm and emission at 840 ± 10 nm, field of view = 12.5 cm (width and height), f/stop = 2, binning = 4, and exposure time at 3 s). During the imaging process, the mice were anesthetized using 3.0% isoflurane gas in oxygen flow (0.5 l min^–1).

NCI-N87 tumor = experiment: as above; set-up: species or system mice (BALB/c nu/nu); conditions: tail vein injection, imaging 24 h after injection, IVIS; three mice
Experimental: as §3

Row | Substance | Zeta potential [1] [mV] | Diameter [2] [nm] | PDI (polydispersity index) [2] | other results
1 | GALFLGFLGAAGSTMGAWSQPKSKRKV-C [MPG^ΔNLS, A3B-type lactosome modified with the CPP MPG^ΔNLS via maleimide-PSar56-PLLA30] | −2.9±0.6 | 49.1±0.5 | 0.29±0.02 | –
2 | KETWWETWWTEWSQPKKKRKV-C [Pep1, A3B-type lactosome modified with the CPP Pep1 via maleimide-PSar56-PLLA30] | 1.7±0.1 | 37.7±0.6 | 0.13±0.02 | Cellular uptake level relative to the EB1-modified lactosomes (CHO cells; 10 nmol lactosome complexes in T buffer, 2 h, 37°C, ICG fluorescence intensity (IVIS, ex 745 nm, em 840 nm) divided by cell viability (Cell Counting Kit-8), mean, n = 4): 0.62; Cellular uptake level (in words) (CHO cells; 2 h, 37°C): highly internalized; Cellular localization (co-localization with LysoTracker Green) (CHO cells): localized mainly in acidic organelles, including endosomes and lysosomes; ICG fluorescence in cells by fluorescence microscopy, compared to lactosomes without CPP (CHO cells; 2 h, 37°C): significantly strong ICG fluorescence
3 | KETWWETWWTEWSQPKKKRKV-C [Pep1/TPP-lactosomes, Pep1-modified lactosome loaded with the photosensitizer TPP] | – | – | – | Killing of NCI-N87 cells compared to the experiment without CPP/TPP-lactosomes (NCI-N87 cells): 67%
4 | LIRLWSHLIHIWFQNRRLKWKKK-C (LIRLWSHLIHIWFQNRRLKWKKKC; also: C-terminal Cys linked via maleimide to PSar56-PLLA30 (lactosome)) [EB1, A3B-type lactosome modified with the CPP EB1 via maleimide-PSar56-PLLA30] | 1.6±0.3 | 38.3±0.2 | 0.12±0.01 | Cellular uptake level (in words) (CHO cells; 2 h, 37°C): most abundantly internalized; Cellular localization (co-localization with LysoTracker Green) (CHO cells): localized mainly in acidic organelles, including endosomes and lysosomes; ICG fluorescence in cells by fluorescence microscopy, compared to lactosomes without CPP (CHO cells; 2 h, 37°C): significantly strong ICG fluorescence
5 | LIRLWSHLIHIWFQNRRLKWKKK-C [EB1/TPP-lactosomes, EB1-modified lactosome loaded with the photosensitizer TPP] | – | – | – | Killing of NCI-N87 cells compared to the experiment without CPP/TPP-lactosomes (NCI-N87 cells): 89%
6 | LIRLWSHLIHIWFQNRRLKWKKK-C [EB1/TPP/ICG-lactosomes, lactosome complex containing EB1, TPP, and ICG] | – | – | – | Accumulation in PANC-1 tumor (ICG fluorescence) (PANC-1 tumor): only slight ICG fluorescence was detected; Accumulation in NCI-N87 tumor (ICG fluorescence) (NCI-N87 tumor): accumulated in NCI-N87 tumors and liver
7 | RKKRRRESRKKRRRES-C (RKKRRRESRKKRRRESC; also: C-terminal Cys linked via maleimide to PSar56-PLLA30 (lactosome)) [DPV3, A3B-type lactosome modified with the CPP DPV3 via maleimide-PSar56-PLLA30] | −3.7±0.3 | 37.0±0.4 | 0.12±0.01 | –
8 | RRRRRRRRRGALFLAFLAAALSLMG-C (RRRRRRRRRGALFLAFLAAALSLMGC; also: C-terminal Cys linked via maleimide to PSar56-PLLA30 (lactosome)) [R9MPG, A3B-type lactosome modified with the CPP R9MPG via maleimide-PSar56-PLLA30] | −2.7±0.9 | 43.9±1.5 | 0.22±0.01 | –
9 | YARAAARQARA-C [PTD4, A3B-type lactosome modified with the CPP PTD4 via maleimide-PSar56-PLLA30] | −4.2±0.3 | 37.0±0.4 | 0.14±0.02 | –
10 | YGRKKRRQRRR-C [Tat, A3B-type lactosome modified with the CPP Tat via maleimide-PSar56-PLLA30] | −3.6±0.1 | 36.2±0.3 | 0.10±0.01 | –
